Experimental data reported in publication PMC11549432 (Nature Communications, 2024).
Like-named read-outs stand apart in the source and are kept apart here.

B1: LpxA wild type (UDP-N-acetylglucosamine acyltransferase), purified (enzyme, E. coli, UniProt P0A722 1-262, looked up)
chain: MIDKSAFVHPTAIVEEGASIGANAHIGPFCIVGPHVEIGEGTVLKSHVVVNGHTKIGRDNEIYQFASIGEVNQDLKYAGEPTRVEIGDRNRIRESVTIHRGTVQGGGLTKVGSDNLLMINAHIAHDCTVGNRCILANNATLAGHVSVDDFAIIGGMTAVHQFCIIGAHVMVGGCSGVAQDVPPYVIAQGNHATPFGVNIEGLKRRGFSREAITAIRNAYKLIYRSGKTLDEVKPEIAELAETYPEVKAFTDFFARSTRGLIR

How the values were obtained:
[1] = biological target: ObgE (Obg of E. coli), wild type, N-terminally His6-tagged, purified (E. coli) (UniProt P42641); experiment: MST
[2] = biological target: ObgE (Obg of E. coli), wild type, N-terminally His6-tagged, purified (E. coli) (UniProt P42641); experiment: MST; remark: listed apart in the source
[3] = biological target: ObgE (Obg of E. coli), wild type, N-terminally His6-tagged, purified (E. coli) (UniProt P42641); experiment: MST; remark: listed apart in the source
SEC-MALS = biological target: the molecule itself; experiment: SEC-MALS

ObgE (Obg of E. coli), wild type, N-terminally His6-tagged, purified (E. coli), sequence (P42641 whole entry): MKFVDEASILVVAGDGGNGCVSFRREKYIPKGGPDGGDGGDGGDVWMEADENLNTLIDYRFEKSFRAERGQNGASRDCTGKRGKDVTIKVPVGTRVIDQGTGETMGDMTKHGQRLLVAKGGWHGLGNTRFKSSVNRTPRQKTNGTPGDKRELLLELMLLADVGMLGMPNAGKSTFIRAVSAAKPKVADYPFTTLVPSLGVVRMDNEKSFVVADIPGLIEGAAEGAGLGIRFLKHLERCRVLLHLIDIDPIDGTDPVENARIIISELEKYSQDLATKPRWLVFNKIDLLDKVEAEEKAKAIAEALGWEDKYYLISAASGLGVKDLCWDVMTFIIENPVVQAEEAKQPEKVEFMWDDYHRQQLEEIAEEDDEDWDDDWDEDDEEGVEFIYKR

Row | Molecule | Kd [1] [µM] | Kd [2] [µM] | Kd [3] [µM] | stoichiometry N (SEC-MALS)
1 | LpxA wild type (UDP-N-acetylglucosamine acyltransferase), purified (from UniProt P0A722 1-262) (enzyme) | 78 | 47 | 99 | 
2 | B1 |  |  |  | 3
